The data set “crystal structure” deals with the molecule itself. Kind of data set: crystal structure.
The data set “SEC” deals with the molecule itself. Kind of data set: SEC. On the technique in general: In gel filtration, larger molecules generally elute earlier.

B1: Rhizobium etli pyruvate carboxylase T882A mutant (enzyme)
chain: PISKILVANRSEIAIRVFRAANELGIKTVAIWAEEDKLALHRFKADESYQVGRGPHLARDLGPIESYLSIDEVIRVAKLSGADAIHPGYGLLSESPEFVDACNKAGIIFIGPKADTMRQLGNKVAARNLAISVGVPVVPATEPLPDDMAEVAKMAAAIGYPVMLKASWGGGGRGMRVIRSEADLAKEVTEAKREAMAAFGKDEVYLEKLVERARHVESQILGDTHGNVVHLFERDCSVQRRNQKVVERAPAPYLSEAQRQELAAYSLKIAGATNYIGAGTVEYLMDADTGKFYFIEVNPRIQVEHTVTEVVTGIDIVKAQIHILDGAAIGTPQSGVPNQEDIRLNGHALQCRVTTEDPEHNFIPDYGRITAYRSASGFGIRLDGGTSYSGAIITRYYDPLLVKVTAWAPNPLEAISRMDRALREFRIRGVATNLTFLEAIIGHPKFRDNSYTTRFIDTTPELFQQVKRQDRATKLLTYLADVTVNGHPEAKDRPKPLENAARPVVPYANGNGVKDGTKQLLDTLGPKKFGEWMRNEKRVLLTDTTMRDGHQSLLATRMRTYDIARIAGTYSHALPNLLSLECWGGATFDVSMRFLTEDPWERLALIREGAPNLLLQMLLRGANGVGYTNYPDNVVKYFVRQAAKGGIDLFRVFDCLNWVENMRVSMDAIAEENKLCEAAICYTGDILNSARPKYDLKYYTNLAVELEKAGAHIIAVKDMAGLLKPAAAKVLFKALREATGLPIHFHTHDTSGIAAATVLAAVEAGVDAVDAAMDALSGNTSQPCLGSIVEALSGSERDPGLDPAWIRRISFYWEAVRNQYAAFESDLKGPASEVYLHEMPGGQFTNLKEQARSLGLETRWHQVAQAYADANQMFGDIVKVAPSSKVVGDMALMMVSQDLTVADVVSPDREVSFPESVVSMLKGDLGQPPSGWPEALQKKALKGEKPYTVRPGSLLKEADLDAERKVIEKKLEREVSDFEFASYLMYPKVFTDFALASDTYGPVSVLPTPAYFYGLADGEELFADIEKGKTLVIVNQAVSATDSQGMVTVFFELNGQPRRIKVPDRAHGATGAAVRRKAEPGNAAHVGAPMPGVISRVFVSSGQAVNAGDVLVSIEAMKMETAIHAEKDGTIAEVLVKAGDQIDAKDLLAVYGG
modifications: biotin tethered to Lys1119
A word on the stoichiometry N: it is the number of molecules, sites or subunits per partner or assembly. As for B1, the “stoichiometry N” value in the data set “crystal structure” is 4.

B2: wild-type Rhizobium etli pyruvate carboxylase (enzyme)
chain: PISKILVANRSEIAIRVFRAANELGIKTVAIWAEEDKLALHRFKADESYQVGRGPHLARDLGPIESYLSIDEVIRVAKLSGADAIHPGYGLLSESPEFVDACNKAGIIFIGPKADTMRQLGNKVAARNLAISVGVPVVPATEPLPDDMAEVAKMAAAIGYPVMLKASWGGGGRGMRVIRSEADLAKEVTEAKREAMAAFGKDEVYLEKLVERARHVESQILGDTHGNVVHLFERDCSVQRRNQKVVERAPAPYLSEAQRQELAAYSLKIAGATNYIGAGTVEYLMDADTGKFYFIEVNPRIQVEHTVTEVVTGIDIVKAQIHILDGAAIGTPQSGVPNQEDIRLNGHALQCRVTTEDPEHNFIPDYGRITAYRSASGFGIRLDGGTSYSGAIITRYYDPLLVKVTAWAPNPLEAISRMDRALREFRIRGVATNLTFLEAIIGHPKFRDNSYTTRFIDTTPELFQQVKRQDRATKLLTYLADVTVNGHPEAKDRPKPLENAARPVVPYANGNGVKDGTKQLLDTLGPKKFGEWMRNEKRVLLTDTTMRDGHQSLLATRMRTYDIARIAGTYSHALPNLLSLECWGGATFDVSMRFLTEDPWERLALIREGAPNLLLQMLLRGANGVGYTNYPDNVVKYFVRQAAKGGIDLFRVFDCLNWVENMRVSMDAIAEENKLCEAAICYTGDILNSARPKYDLKYYTNLAVELEKAGAHIIAVKDMAGLLKPAAAKVLFKALREATGLPIHFHTHDTSGIAAATVLAAVEAGVDAVDAAMDALSGNTSQPCLGSIVEALSGSERDPGLDPAWIRRISFYWEAVRNQYAAFESDLKGPASEVYLHEMPGGQFTNLKEQARSLGLETRWHQVAQAYADANQMFGDIVKVTPSSKVVGDMALMMVSQDLTVADVVSPDREVSFPESVVSMLKGDLGQPPSGWPEALQKKALKGEKPYTVRPGSLLKEADLDAERKVIEKKLEREVSDFEFASYLMYPKVFTDFALASDTYGPVSVLPTPAYFYGLADGEELFADIEKGKTLVIVNQAVSATDSQGMVTVFFELNGQPRRIKVPDRAHGATGAAVRRKAEPGNAAHVGAPMPGVISRVFVSSGQAVNAGDVLVSIEAMKMETAIHAEKDGTIAEVLVKAGDQIDAKDLLAVYGG
On to B2, for which, in “SEC”, the “stoichiometry N” value stood at 4.
